Experimental data taken from patent US20090208538A1 (ROCKEFELLER UNIVERSITY, published 2009).

B1: cdr2-specific murine T cell receptor of CTL clones 11 and 12 (TCR, V domains shown)
V domain 1: QQQVRQSPQSLTVWEGGTTVLTCSYEDSTFNYFPWYQQFPGEGPALLISILSVSDKKEDGRFTTFFNKREKKLSLHIIDSQPGDSATYFCAASGASGGSNAKLTFGKGTKLSVKS
V domain 2: DSGVVQSPRHIIKEKGGRSVLTCIPISGHSNVVWYQQTLGKELKFLIQHYEKVERDKGFLPSRFSVQQFDDYHSEMNMSALELEDSAMYFCASSLGGWAEQFFGPGTRLTVLE

What was measured:
HLA-B*0801 [1] = target: HLA-B*0801 (human); experiment: iTopia net score
HLA-B*0702 [2] = target: HLA-B*0702 (human); experiment: iTopia off-rate
HLA-B*0702 [3] = target: HLA-B*0702 (human); experiment: iTopia net score
HLA-B*0801 [4] = target: HLA-B*0801 (human); experiment: iTopia affinity
HLA-B*0702 [5] = target: HLA-B*0702 (human); experiment: iTopia affinity
[6] = target: HLA-A2.1/cdr2(290-298) complex (human); experiment: cell-based or functional assay
HLA-A*0201 [7] = target: T1, HLA-A*0201 (human); experiment: iTopia binding;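 note: each peptide tested for binding to HLA-A2 molecules immobilized on plates, using a commercial screening kit run per its supplied protocol and reagents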
T1 construct: also called HLA-A2.1; HLA A2.1

HLA-A*0201 [8] = target: T1, HLA-A*0201; experiment: iTopia affinity;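 note: peptide affinity for plate-bound HLA-A2 molecules (iTopia system), with ED50 derived from an eight-point serial peptide dilution series run under binding assay conditions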
HLA-A*0201 [9] = target: T1, HLA-A*0201; experiment: iTopia off-rate;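 note: Half-life of peptide complexes with plate-bound HLA-A2, peptides loaded 18 h at 21 C, washed, then held at 37 C over several time points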
HLA-A*0201 [10] = target: T1, HLA-A*0201; experiment: iTopia net score;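 note: combined score from peptide binding, ED₅₀ and half-life of peptide complexes with plate-bound HLA-A2 molecules, computed by a proprietary formula in iTopia software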
HLA-A*1501 [11] = target: T2, HLA-A*1501 (human); experiment: iTopia affinity
T2 construct: possibly meant as HLA-B*1501

HLA-A*1501 [12] = target: T2, HLA-A*1501; experiment: iTopia net score
HLA-A*1101 [13] = target: HLA-A*1101 (human); experiment: iTopia off-rate
HLA-A*1101 [14] = target: HLA-A*1101 (human); experiment: iTopia affinity;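 note: affinity derived from a titration of eight serial peptide dilutions, each run under the same conditions as the binding screen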
HLA-A*0301 [15] = target: HLA-A*0301 (human); experiment: iTopia affinity
HLA-A*0301 [16] = target: HLA-A*0301 (human); experiment: iTopia net score
HLA-A*0301 [17] = target: HLA-A*0301 (human); experiment: iTopia off-rate
HLA-A*1101 [18] = target: HLA-A*1101 (human); experiment: iTopia net score
HLA-A*0101 [19] = target: HLA-A*0101 (human); experiment: iTopia affinity
HLA-A*0101 [20] = target: HLA-A*0101 (human); experiment: iTopia off-rate
HLA-A*0101 [21] = target: HLA-A*0101 (human); experiment: iTopia net score
HLA-A*2402 [22] = target: HLA-A*2402 (human); experiment: iTopia net score;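 note: iScore from iTopia software combining peptide binding, affinity over a dilution series and off-rate after warming to body temperature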
HLA-A*2402 [23] = target: HLA-A*2402 (human); experiment: iTopia affinity;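 note: peptide binding to HLA-A*2402 measured in iTopia kit format across eight serial peptide dilutions, ED50 derived from the resulting titration curve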
HLA-A*2402 [24] = target: HLA-A*2402 (human); experiment: iTopia off-rate

Binder | iScore (HLA-B*0801 [1]) | t1/2 (HLA-B*0702 [2]) | iScore (HLA-B*0702 [3]) | ED50 (HLA-B*0801 [4]) [µM] | ED50 (HLA-B*0702 [5]) [µM] | binding vs positive control (HLA-A*0201 [7]) [%] | ED50 (HLA-A*0201 [8]) [µM] | t1/2 (HLA-A*0201 [9]) | iScore (HLA-A*0201 [10]) | ED50 (HLA-A*1501 [11]) [µM] | iScore (HLA-A*1501 [12]) | iScore (HLA-A*2402 [22]) | ED50 (HLA-A*2402 [23]) [µM] | t1/2 (HLA-A*2402 [24]) | further results
EQRTKYRSL [cdr2 442-450 EQRTKYRSL] | 0.16 | 1.59 | 0.031 | 15 | 100 |  |  |  |  |  |  |  |  |  | 
B1 |  |  |  |  |  |  |  |  |  |  |  |  |  |  | IFN-γ release, ELISA [6]: 20 fold above background
LLHEVDTQY [cdr2 345-353 LLHEVDTQY] |  |  |  |  |  | > 30 | 7 | 3.5 | 0.204 | 39 | 0.121 |  |  |  | 
LQLAAELGK [cdr2 28-36 LQLAAELGK] |  |  |  |  |  |  |  |  |  |  |  |  |  |  | t1/2 (HLA-A*1101 [13]): 1; ED50 (HLA-A*1101 [14]): 7.9 µM; ED50 (HLA-A*0301 [15]): 15 µM; iScore (HLA-A*0301 [16]): 0.086; t1/2 (HLA-A*0301 [17]): 1.12; iScore (HLA-A*1101 [18]): 0.194
DTQYSALKV [cdr2 350-358 DTQYSALKV] |  |  |  |  |  |  |  |  |  |  |  |  |  |  | ED50 (HLA-A*0101 [19]): 49 µM; t1/2 (HLA-A*0101 [20]): 0.4; iScore (HLA-A*0101 [21]): 0.04
AQLSLERQK [cdr2 207-215 AQLSLERQK] |  |  |  |  |  |  |  |  |  |  |  |  |  |  | t1/2 (HLA-A*1101 [13]): 1.4; ED50 (HLA-A*1101 [14]): 5.7 µM; ED50 (HLA-A*0301 [15]): 25 µM; iScore (HLA-A*0301 [16]): 0.075; t1/2 (HLA-A*0301 [17]): 0.97; iScore (HLA-A*1101 [18]): 0.271
HLKKTVTML [cdr2 197-205 HLKKTVTML] | 0.123 | 0.11 | 0.022 | 37 | 99 | > 30 | 10 | 2.5 | 0.199 |  |  | 0.075 | 89 | 0.8 | 
TGAYRARAL [cdr2 240-248 TGAYRARAL] | 0.085 | 0.22 | 0.082 | 18 | 5.7 |  |  |  |  |  |  |  |  |  | 
RARALELEA [cdr2 244-252 RARALELEA] |  | 0.47 | 0.08 |  | 14 |  |  |  |  | 48 | 0.118 |  |  |  | 
ALKVKYEEL [cdr2 355-363 ALKVKYEEL] | 0.099 |  |  | 84 |  | > 30 | 7 | 0.8 | 0.107 |  |  | 0.076 | 10 | 0.38 | 
RQHFVYDHV [cdr2 168-176 RQHFVYDHV] |  |  |  |  |  | > 30 | 6 | 3.7 | 0.304 | 39 | 0.088 |  |  |  | 
SFACLKELY [cdr2 157-165 SFACLKELY] |  |  |  |  |  |  |  |  |  | 5.3 | 0.132 | 0.157 | 1.4 | 0.5 | ED50 (HLA-A*0101 [19]): 6.9 µM; t1/2 (HLA-A*0101 [20]): 0.97; iScore (HLA-A*0101 [21]): 0.137
AYRARALEL [cdr2 242-250 AYRARALEL] | 0.066 | 0.15 | 0.033 | 26 | 23 |  |  |  |  |  |  | 0.611 | 0.16 | 1.11 | 
KQRGISLLH [cdr2 339-347 KQRGISLLH] |  |  |  |  |  |  |  |  |  | 22 | 0.163 | 0.184 | 6.9 | 1.52 | t1/2 (HLA-A*1101 [13]): 0.44; ED50 (HLA-A*1101 [14]): 22 µM; iScore (HLA-A*1101 [18]): 0.089
ASQQKILSL [cdr2 107-113 ASQQKILSL] |  |  |  |  |  | > 30 | 8 | 3.4 | 0.174 | 24 | 0.092 |  |  |  | t1/2 (HLA-A*1101 [13]): 2.45; ED50 (HLA-A*1101 [14]): 20 µM; iScore (HLA-A*1101 [18]): 0.19
